Results reported in article PMC12087451, “The SmWRKY32-SmbHLH65/SmbHLH85 regulatory module mediates tanshinone biosynthesis in Salvia miltiorrhiza”.

B1: pSmbHLH65 W-box probe (3 copies) (dsDNA)
DNA 1: TTCATTGACCAAATTTCATTGACCAAATTTCATTGACCAAAT
DNA 2: ATTTGGTCAATGAAATTTGGTCAATGAAATTTGGTCAATGAA
B2: pSmbHLH65-M cold probe (dsDNA)
DNA 1: TTCAAAAAAAAAATTTCAAAAAAAAAATTTCAAAAAAAAAAT
DNA 2: ATTTTTTTTTTGAAATTTTTTTTTTGAAATTTTTTTTTTGAA

Columns and labels:
GST-SmWRKY32 [1] = target: T1, GST-SmWRKY32 (Salvia miltiorrhiza, UniProt A0A0D5YAE6 1-129); experiment: EMSA; Chemiluminescent EMSA kit (Beyotime GS009) EMSA/Gel-Shift binding buffer, 25 C, 10 min then 20 min with biotin probe, 6% PAGE; salt and pH not stated; conditions: protein: recombinant; tags: N-terminal GST (pGEX-4T-1); label: biotin (labelled probe); blunt
T1 sequence (A0A0D5YAE6 entry or part of it): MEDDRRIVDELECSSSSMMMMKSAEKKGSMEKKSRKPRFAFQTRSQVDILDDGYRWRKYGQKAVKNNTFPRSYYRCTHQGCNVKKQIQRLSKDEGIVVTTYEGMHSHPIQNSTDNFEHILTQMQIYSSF

GST-SmWRKY32 [2] = target: T1, GST-SmWRKY32; experiment: competition; 50-fold unlabelled mutant competitor; Chemiluminescent EMSA kit (Beyotime GS009) EMSA/Gel-Shift binding buffer, 25 C, 10 min then 20 min with biotin probe, 6% PAGE; salt and pH not stated; conditions: protein: recombinant; tags: N-terminal GST (pGEX-4T-1); label: none; blunt

Binder | binding result (GST-SmWRKY32 [1]) | binding result (GST-SmWRKY32 [2])
B1 | binds | 
B2 |  | no binding
